The target of this series is T1, M.HhaI (DNA cytosine-5 methyltransferase) (Haemophilus haemolyticus, UniProt P05102 P05102:1-327).
T1 sequence: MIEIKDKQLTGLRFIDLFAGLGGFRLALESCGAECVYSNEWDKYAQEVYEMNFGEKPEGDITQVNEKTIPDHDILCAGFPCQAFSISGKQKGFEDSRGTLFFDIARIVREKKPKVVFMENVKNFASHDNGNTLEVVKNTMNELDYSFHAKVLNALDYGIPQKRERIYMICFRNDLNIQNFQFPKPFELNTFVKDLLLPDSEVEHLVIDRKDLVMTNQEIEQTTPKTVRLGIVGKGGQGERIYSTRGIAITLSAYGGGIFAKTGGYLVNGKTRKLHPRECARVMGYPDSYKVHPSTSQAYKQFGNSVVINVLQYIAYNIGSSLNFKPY
Kind of series: anion exchange HPLC; coupling of aziridine cofactors 1, 2, 3 almost complete; non-covalent M.HhaI-product DNA complex; 10 mM Tris pH 7.4, 50 mM NaCl, 37 C. The procedure: Solutions (400 μL) of aziridine cofactor 1, 2 or 3 (32 nmol, 80 μM), duplex oligodeoxynucleotide I-II (4 nmol, 10 μM) and M.HhaI (4.4 nmol, 11 μM) in buffer (10 mM Tris hydrochloride, pH 7.4, 50 mM sodium chloride, 0.05 mM ethylenediaminetetraacetic acid and 2 mM β-mercaptoethanol) were incubated at 37° C. The progress of the coupling reactions was monitored by anion exchange HPLC (Poros 10 HQ, 10 μm, 4.6×10 mm, Applied Biosystems). Compounds were eluted with aqueous potassium chloride (0.2 M for 5 min, followed by linear gradients to […], to 0.6 M in 20 min and to 1 M in 5 min) in Tris hydrochloride buffer (10 mM, pH 7.6) at a flow of 4 mL/min. […] These new compounds are assigned to non-covalent protein-DNA complexes between M.HhaI and the coupling products I¹-II, I²-II and I³-II based on their UV absorption ratio at 260 nm and 280 nm.
The presence and functionality of biotin groups in I¹-II, I²-II and I³-II were verified by addition of streptavidin. Residual aziridine cofactors 1, 2 or 3 were first removed from the labelled duplexes I¹-II, I²-II or I³-II by gel filtration using NAP-5 columns (Amersham Biosciences, Freiburg, Germany) according to the instructions of the supplier. Afterwards, streptavidin (25 μg) was added to the solutions (25 μL, 0.25 nmol I¹-II, I²-II or I³-II) and incubation was performed at 37° C. for 30 min.

This note sets out measurements from patent US20110165564, “SEQUENCE-SPECIFIC DETECTION OF METHYLATION IN BIOMOLECULES” (MAX-PLANCK-GESELLSCHAFT ZUR FÖRDERUNG DER …, published 2011).

B1: duplex I-II (hemimethylated) (dsDNA)
DNA 1: TGTCAGCGCATGA
DNA 2: TCATGCGCTGACA
modifications: 5mC at M in lower strand 5'-…-3'
As for B1, the binding result is reported as “binds”.
